Source: the supplement of paper PMC9112550, “Optimization of the antimicrobial peptide Bac7 by deep mutational scanning” (BMC Biology, 2022)
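Also: peptides expressed intracellularly from a pBAD plasmid library in pooled LB shake-flask culture, induced with 0.3% L-arabinose, DNA abundance read by NGS, three biological replicates, DESeq2 with apeglm shrinkage.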

The sequences below were run on Escherichia coli TOP10 (assay: shrunken log2 fold change of peptide-encoding DNA abundance (4.5 h post-induction vs induction); higher = less antimicrobial activity (less host growth inhibition)). Conditions: time post-induction: 4.5 h; library: site-saturation at positions 5, 18, 19, 20.
RRIRMRPPRLPRPRPRPICIPRP was tested, and the “shrunken log2 fold change” value was 0.0141. RRIRMRPPRLPRPRPRPIDKPRP was tested, and the “shrunken log2 fold change” value was -0.197. RRIRMRPPRLPRPRPRPIINPRP was tested, and the “shrunken log2 fold change” value was -0.0492. In the case of RRIRMRPPRLPRPRPRPIIYPRP, the “shrunken log2 fold change” value was -0.732. For RRIRMRPPRLPRPRPRPIKAPRP, the “shrunken log2 fold change” value was 0.0335. With RRIRMRPPRLPRPRPRPIKRPRP the “shrunken log2 fold change” value was 0.0532. RRIRMRPPRLPRPRPRPILGPRP was tested, and the “shrunken log2 fold change” value was -0.00884. In the case of RRIRMRPPRLPRPRPRPIMQPRP, the “shrunken log2 fold change” value was 0.0343. With RRIRMRPPRLPRPRPRPISDPRP the “shrunken log2 fold change” value was 0.0757. With RRIRMRPPRLPRPRPRPITAPRP the “shrunken log2 fold change” value was 0.244. With RRIRMRPPRLPRPRPRPKAGPRP the “shrunken log2 fold change” value was 1.3. RRIRMRPPRLPRPRPRPKAWPRP was tested, and the “shrunken log2 fold change” value was 0.0535. RRIRMRPPRLPRPRPRPKDHPRP was tested, and the “shrunken log2 fold change” value was 0.458. For RRIRMRPPRLPRPRPRPKFRPRP, the “shrunken log2 fold change” value was 0.169. For RRIRMRPPRLPRPRPRPKMPPRP, the “shrunken log2 fold change” value was 0.493. With RRIRMRPPRLPRPRPRPKNHPRP the “shrunken log2 fold change” value was 0.412. In the case of RRIRMRPPRLPRPRPRPKNYPRP, the “shrunken log2 fold change” value was 0.0737. RRIRMRPPRLPRPRPRPKPIPRP was tested, and the “shrunken log2 fold change” value was 0.32. For RRIRMRPPRLPRPRPRPKQSPRP, the “shrunken log2 fold change” value was 0.757. RRIRMRPPRLPRPRPRPKQYPRP was tested, and the “shrunken log2 fold change” value was 0.146. In the case of RRIRMRPPRLPRPRPRPKRPPRP, the “shrunken log2 fold change” value was 0.85. For RRIRMRPPRLPRPRPRPKTGPRP, the “shrunken log2 fold change” value was 0.895. With RRIRMRPPRLPRPRPRPKVCPRP the “shrunken log2 fold change” value was 0.0971. In the case of RRIRMRPPRLPRPRPRPKVHPRP, the “shrunken log2 fold change” value was -0.132. In the case of RRIRMRPPRLPRPRPRPKVMPRP, the “shrunken log2 fold change” value was 0.201. With RRIRMRPPRLPRPRPRPKVPPRP the “shrunken log2 fold change” value was 0.882. For RRIRMRPPRLPRPRPRPKVRPRP, the “shrunken log2 fold change” value was 0.00262. For RRIRMRPPRLPRPRPRPKVWPRP, the “shrunken log2 fold change” value was 1.04. For RRIRMRPPRLPRPRPRPKWYPRP, the “shrunken log2 fold change” value was -0.171. In the case of RRIRMRPPRLPRPRPRPKYPPRP, the “shrunken log2 fold change” value was -0.00805. RRIRMRPPRLPRPRPRPKYVPRP was tested, and the “shrunken log2 fold change” value was -0.0144. In the case of RRIRMRPPRLPRPRPRPLAPPRP, the “shrunken log2 fold change” value was 0.735. With RRIRMRPPRLPRPRPRPLARPRP the “shrunken log2 fold change” value was 0.659. With RRIRMRPPRLPRPRPRPLDGPRP the “shrunken log2 fold change” value was 0.844. In the case of RRIRMRPPRLPRPRPRPLECPRP, the “shrunken log2 fold change” value was -0.0215. With RRIRMRPPRLPRPRPRPLEFPRP the “shrunken log2 fold change” value was -0.102. RRIRMRPPRLPRPRPRPLEGPRP was tested, and the “shrunken log2 fold change” value was 0.109. With RRIRMRPPRLPRPRPRPLFEPRP the “shrunken log2 fold change” value was 0.633. For RRIRMRPPRLPRPRPRPLFNPRP, the “shrunken log2 fold change” value was -0.439. With RRIRMRPPRLPRPRPRPLGDPRP the “shrunken log2 fold change” value was 0.364. With RRIRMRPPRLPRPRPRPLHFPRP the “shrunken log2 fold change” value was -0.0889. With RRIRMRPPRLPRPRPRPLKLPRP the “shrunken log2 fold change” value was 0.0525. In the case of RRIRMRPPRLPRPRPRPLLLPRP, the “shrunken log2 fold change” value was -0.32. For RRIRMRPPRLPRPRPRPLNFPRP, the “shrunken log2 fold change” value was -0.00433. With RRIRMRPPRLPRPRPRPLRGPRP the “shrunken log2 fold change” value was 2.15. With RRIRMRPPRLPRPRPRPLRQPRP the “shrunken log2 fold change” value was -0.214. With RRIRMRPPRLPRPRPRPLSEPRP the “shrunken log2 fold change” value was 0.511. In the case of RRIRMRPPRLPRPRPRPLSLPRP, the “shrunken log2 fold change” value was 0.0457. For RRIRMRPPRLPRPRPRPLTVPRP, the “shrunken log2 fold change” value was 0.169. In the case of RRIRMRPPRLPRPRPRPLVSPRP, the “shrunken log2 fold change” value was 0.162. With RRIRMRPPRLPRPRPRPLWGPRP the “shrunken log2 fold change” value was 0.119. RRIRMRPPRLPRPRPRPLWRPRP was tested, and the “shrunken log2 fold change” value was 0.704. RRIRMRPPRLPRPRPRPLYCPRP was tested, and the “shrunken log2 fold change” value was -0.396. In the case of RRIRMRPPRLPRPRPRPLYNPRP, the “shrunken log2 fold change” value was -0.335. For RRIRMRPPRLPRPRPRPMCIPRP, the “shrunken log2 fold change” value was -0.296. In the case of RRIRMRPPRLPRPRPRPMCTPRP, the “shrunken log2 fold change” value was -0.0175. RRIRMRPPRLPRPRPRPMCVPRP was tested, and the “shrunken log2 fold change” value was 1.45. In the case of RRIRMRPPRLPRPRPRPMEQPRP, the “shrunken log2 fold change” value was 1.29. RRIRMRPPRLPRPRPRPMERPRP was tested, and the “shrunken log2 fold change” value was -0.0334. With RRIRMRPPRLPRPRPRPMFRPRP the “shrunken log2 fold change” value was -0.0348. For RRIRMRPPRLPRPRPRPMICPRP, the “shrunken log2 fold change” value was -0.0412. With RRIRMRPPRLPRPRPRPMKNPRP the “shrunken log2 fold change” value was 0.328. With RRIRMRPPRLPRPRPRPMKYPRP the “shrunken log2 fold change” value was 0.0979. For RRIRMRPPRLPRPRPRPMLFPRP, the “shrunken log2 fold change” value was 0.138. For RRIRMRPPRLPRPRPRPMNRPRP, the “shrunken log2 fold change” value was -0.24. In the case of RRIRMRPPRLPRPRPRPMNTPRP, the “shrunken log2 fold change” value was 0.206. For RRIRMRPPRLPRPRPRPMPFPRP, the “shrunken log2 fold change” value was 0.221. RRIRMRPPRLPRPRPRPMPLPRP was tested, and the “shrunken log2 fold change” value was 0.00106. RRIRMRPPRLPRPRPRPMRRPRP was tested, and the “shrunken log2 fold change” value was 0.487. For RRIRMRPPRLPRPRPRPMRYPRP, the “shrunken log2 fold change” value was -0.0558. With RRIRMRPPRLPRPRPRPMSMPRP the “shrunken log2 fold change” value was 0.11. With RRIRMRPPRLPRPRPRPMSSPRP the “shrunken log2 fold change” value was 0.0418. For RRIRMRPPRLPRPRPRPMTEPRP, the “shrunken log2 fold change” value was 0.12. RRIRMRPPRLPRPRPRPMVAPRP was tested, and the “shrunken log2 fold change” value was 0.12. For RRIRMRPPRLPRPRPRPMVSPRP, the “shrunken log2 fold change” value was 0.0423.
